From paper PMC11218721, “Receptor-Targeted Peptide Conjugates Based on Diphosphines Enable Preparation of ^99mTc and ^188Re Theranostic Agents for Prostate Cancer” (Journal of Nuclear Medicine, 2024)
Like-named read-outs stand apart in the source and are kept apart here.

Legend:
[1] = Ex vivo biodistribution in SCID/beige mice bearing DU145-PSMA+ xenograft tumors; conditions: male, SCID/beige, mouse, in vivo, iv, total radioactivity
Method: (§1) All animal experiments were ethically reviewed by an Animal Welfare and Ethical Review Board at either King’s College London or Barts Cancer Institute and were performed in accordance with the Animals (Scientific Procedures) Act 1986 U.K. Home Office regulations governing animal experimentation. Subcutaneous prostate cancer DU145-PSMA+ or DU145 xenografts were produced in SCID/beige mice (male, 7–12 wk old). Subcutaneous LNCaP prostate cancer xenografts were produced in athymic nude mice (Crl:NU(NCr)-Foxn1^nu, male, 6–7 wk old). SPECT/CT and biodistribution studies using ^99mTc and ^188Re radiotracers were performed once a tumor had reached an appropriate size (supplemental materials).
(§2) The biodistributions of [^99mTc]Tc-DP1-PSMAt and [^99mTc]Tc-DP2-PSMAt were assessed in male SCID/beige mice bearing DU145-PSMA+ xenograft tumors (Fig. 3). Each mouse was administered either [^99mTc]Tc-DP1-PSMAt or [^99mTc]Tc-DP2-PSMAt and euthanized at 2 h after injection (n = 5), followed by organ harvesting for ex vivo radioactivity counting.
(§3) FIGURE 3. (A) Biodistribution (2 h after injection) of SCID/beige mice bearing DU145-PSMA+ prostate cancer tumors, administered either ^99mTc or ^188Re radiotracers intravenously. To assess specificity of radiotracer uptake, additional groups of mice were also coadministered radiotracer and PMPA (Supplemental Tables 3 and 4). (B) Whole-body SPECT/CT maximum-intensity projections of SCID/beige mice bearing either DU145-PSMA+ tumors or DU145 tumors, administered either [^99mTc]Tc-DP1-PSMAt or [^99mTc]Tc-DP2-PSMAt, 2 h after injection. To inhibit uptake in DU145-PSMA+ tumors, animals were also coadministered PMPA.
(§4) To assess the specificity of each radiotracer, separate groups of animals, also bearing DU145-PSMA+ tumors, were coadministered either [^99mTc]Tc-DP1-PSMAt and PMPA or [^99mTc]Tc-DP2-PSMAt and PMPA to inhibit PSMA-mediated uptake of radiotracer (n = 5). […] For [^99mTc]Tc-DP1-PSMAt, coadministration decreased uptake to 0.91 ± 0.29 %ID/g in tumors (compared with administration of [^99mTc]Tc-DP1-PSMAt only: mean difference of 17.12 %ID/g, P = 4 × 10^−4). For [^99mTc]Tc-DP2-PSMAt, coadministration decreased uptake to 0.76 ± 0.45 %ID/g in tumors (compared with administration of [^99mTc]Tc-DP2-PSMAt only: mean difference of 28.62 %ID/g, P = 5 × 10^−4).

[2] = in vivo; set-up: species or system mice; conditions: male, SCID/beige, mouse, total radioactivity
Method: as §1
Additionally, groups of mice bearing non–PSMA-expressing parental DU145 tumors were also administered these ^99mTc radiotracers. For these groups, tumor uptake of [^99mTc]Tc-DP1-PSMAt decreased to 0.24 ± 0.07 %ID/g, and tumor uptake of [^99mTc]Tc-DP2-PSMAt decreased to 0.18 ± 0.07 %ID/g (Supplemental Fig. 3).

[3] = Ex vivo biodistribution in athymic nude mice bearing LNCaP xenografts; conditions: male, athymic nude (Crl:NU(NCr)-Foxn1^nu), mouse, total radioactivity
Method: as §1
With a view to developing a molecular [^188Re]Re-labeled agent for PSMA PRRT, we further characterized the biodistribution profiles of [^188Re]Re-DP1-PSMAt and [^188Re]Re-DP2-PSMAt in male athymic nude mice bearing LNCaP xenografts (Fig. 4), which recapitulate clinical metastatic prostate cancer more closely than DU145-PSMA+ xenografts. […] In mice administered [^188Re]Re-DP1-PSMAt, LNCaP tumor uptake measured 7.0 ± 2.3 %ID/g at 2 h after injection and 2.9 ± 0.8 %ID/g at 24 h after injection. For [^188Re]Re-DP2-PSMAt, LNCaP tumor uptake measured 9.8 ± 2.8 %ID/g at 2 h after injection and 7.6 ± 4.4 %ID/g at 24 h after injection.
FIGURE 4. (A–C) Biodistribution of ^188Re in athymic nude mice bearing LNCaP prostate cancer tumors, administered either [^188Re]Re-DP1-PSMAt or [^188Re]Re-DP2-PSMAt at 2 h after injection (A), at 24 h after injection (B), and at 2 h after injection (C) with coadministration of Gelofusine. (D) Additionally, biodistributions of [^99mTc]Tc-DP1-PSMAt and [^99mTc]Tc-DP2-PSMAt at 2 h after injection were measured (Supplemental Tables 5–8). GI = gastrointestinal tract.

[4] = test system: PC3 cells; test: Radiotracer uptake in PC3 cells (non-PSMA-expressing); assay type: cell-based; conditions: 100 kBq, 1 h, 37°C; cells do not express PSMA
Method: (§5) Solutions containing radiotracer (100 kBq in 8–12 μL of phosphate-buffered saline, >95% radiochemical purity) were added to DU145-PSMA+ or LNCaP prostate cancer cells ([22]), and the cells were incubated at 37°C for 1 h. Nonspecific uptake was determined using non–PSMA-expressing cells (DU145, PC3) or by blocking PSMA-expressing cells (DU145-PSMA+, LNCaP) with 2-phosphonomethyl pentanedioic acid (PMPA). After incubation, the cells were washed and samples collected for radioactivity counting. Uptake and localization of ^99mTc radiotracers were measured over time (15, 30, 60, and 120 min) in DU145-PSMA+ or LNCaP cells (supplemental materials).
(§6) To assess the specificity of the new radiotracers for PSMA, [^99mTc]Tc-DP1-PSMAt and [^99mTc]Tc-DP2-PSMAt (100 kBq) were each incubated with DU145-PSMA+ prostate cancer cells (DU145 cells transfected to express PSMA receptor) ([22]). After 1 h of incubation, uptake of each radiotracer was quantified. […] In LNCaP cells, uptake of [^99mTc]Tc-DP1-PSMAt and [^99mTc]Tc-DP2-PSMAt measured 3.7 ± 1.2 %AR and 3.0 ± 0.8 %AR, respectively, whereas uptake of both radiotracers in PC3 cells measured less than 0.3 %AR.
(§7) FIGURE 2. (A) Uptake of radiotracers in PSMA-positive and PSMA-negative prostate cancer cells. (B) Time course uptake and localization of ^99mTc radiotracers in DU145-PSMA cells and LNCaP cells. Data are presented as mean ± SD; n = 3–4 biologic repeats performed in triplicate.

[5] = test system: LNCaP prostate cancer cells, which natively express PSMA; test: Radiotracer uptake in LNCaP prostate cancer cells; assay type: cell-based; conditions: 37°C; for uptake in LNCaP cells: 100 kBq radiotracer, 1 h incubation, percentage added radioactivity, mean ± SD, n = 3–4 biologic repeats in triplicate; for uptake in LNCaP cells with PMPA block: blocked with PMPA, 1 h
Method: as §5, §6, §7

[6] = test system: DU145-PSMA+ xenograft tumors; test: Ex vivo biodistribution in SCID/beige mice bearing DU145-PSMA+ xenograft tumors; conditions: for effect of PMPA coadministration on spleen uptake (in words) / effect of PMPA coadministration on tumor uptake (in words): SCID/beige mice bearing DU145-PSMA+ tumors, 2 h after injection; for radioactivity concentration in DU145-PSMA+ tumors: male, SCID/beige, mouse, in vivo, iv, 2 h
Method: as §1, §2, §3, §4

[7] = test system: DU145-PSMA+ prostate cancer cells (DU145 cells transfected to express PSMA receptor); test: Radiotracer uptake in DU145-PSMA+ prostate cancer cells; assay type: cell-based; conditions: 37°C; for uptake in DU145-PSMA+ cells: 100 kBq radiotracer, 1 h incubation, percentage added radioactivity, mean ± SD, n = 3–4 biologic repeats in triplicate; for uptake in DU145-PSMA+ cells with PMPA block: coincubated with PSMA inhibitor PMPA, 1 h
Method: as §5, §6, §7

[8] = test system: parental DU145 cells that do not express PSMA; test: Radiotracer uptake in parental DU145 cells (non-PSMA-expressing); assay type: cell-based; conditions: 100 kBq, 1 h, 37°C
Method: as §5, §6, §7

[9] = SCID/beige mice bearing DU145-PSMA+ tumors, 2 h after injection, read-out: radioactivity concentration in kidneys
[10] = SCID/beige mice, 2 h after injection, PMPA coadministered, n = 5, read-out: DU145-PSMA+ tumor uptake with coadministration of PMPA
[11] = SCID/beige mice, 2 h after injection, PMPA coadministered, read-out: radioactivity concentration in spleen with PMPA
[12] = radioactivity concentration in DU145-PSMA+ tumors
[13] = radioactivity concentration in spleen
[14] = athymic nude mice bearing LNCaP tumors, 2 h after injection, Gelofusine coadministered, read-out: kidney retention with coadministration of Gelofusine
[15] = athymic nude mice bearing LNCaP tumors, 2 h after injection, read-out: concentration in kidneys at 2 h
[16] = athymic nude mice bearing LNCaP tumors, 24 h after injection, read-out: concentration in kidneys at 24 h

Row | SMILES | tissue uptake at 2 h [1, 9] [%ID/g] | tissue uptake at 2 h [1, 10] [%ID/g] | tissue uptake at 2 h [1, 11] [%ID/g] | tissue uptake at 2 h [1, 12] [%ID/g] | tissue uptake at 2 h [1, 13] [%ID/g] | tissue uptake at 2 h [2] [%ID/g] | tissue uptake at 2 h [3] [%ID/g] | tissue uptake at 24 h [3] [%ID/g] | tissue uptake at 2 h [3, 14] [%ID/g] | tissue uptake at 2 h [3, 15] [%ID/g] | tissue uptake at 24 h [3, 16] [%ID/g] | uptake in PC3 cells (in words) [4] | uptake in LNCaP cells [5] [%AR] | uptake in LNCaP cells with PMPA block [5] | effect of PMPA coadministration on spleen uptake (in words) [6] | effect of PMPA coadministration on tumor uptake (in words) [6] | radioactivity concentration in DU145-PSMA+ tumors [6] [%ID/g] | uptake in DU145-PSMA+ cells [7] [%AR] | uptake in DU145-PSMA+ cells with PMPA block [7] | uptake in parental DU145 cells [8] | further results
1 | O=C(O)CC[C@H](NC(=O)N[C@@H](CCCCNC(=O)CCOCCOCCOCCOCCNC(=O)/C(=C(\C(=O)O)P(c1ccccc1)c1ccccc1)P(c1ccccc1)c1ccccc1)C(=O)O)C(=O)O [[^99mTc]Tc-DP1-PSMAt, metal not drawn] | 116 ± 27.3 | 0.91 ± 0.29 | 0.2 ± 0.06 | 18 ± 3.5 | 12 ± 5.3 | 0.24 ± 0.07 |  |  |  |  |  |  |  |  |  |  |  |  |  |  | tissue uptake at 2 h ([1]; SCID/beige mice, 2 h after injection, PMPA coadministered, read-out: radioactivity concentration in kidneys with PMPA): 38 ± 2.9 %ID/g
2 | Cc1ccc(P(/C(C(=O)O)=C(/C(=O)NCCOCCOCCOCCOCCC(=O)NCCCC[C@H](NC(=O)N[C@@H](CCC(=O)O)C(=O)O)C(=O)O)P(c2ccc(C)cc2)c2ccc(C)cc2)c2ccc(C)cc2)cc1 [[^99mTc]Tc-DP2-PSMAt, metal not drawn] | 183 ± 23.8 | 0.76 ± 0.45 | 0.3 ± 0.18 | 29.4 ± 6.3 | 7.7 ± 3.4 | 0.18 ± 0.07 |  |  |  |  |  |  |  |  |  |  |  |  |  |  | 
3 | O=C(O)CC[C@H](NC(=O)N[C@@H](CCCCNC(=O)CCOCCOCCOCCOCCNC(=O)/C(=C(\C(=O)O)P(c1ccccc1)c1ccccc1)P(c1ccccc1)c1ccccc1)C(=O)O)C(=O)O [[^188Re]Re-DP1-PSMAt, metal not drawn] |  |  |  |  |  |  | 7 ± 2.3 | 2.9 ± 0.8 | 109 ± 13.3 | 137 ± 34.6 | 29.4 ± 4.9 |  |  |  |  |  |  |  |  |  | 
4 | O=C(O)CC[C@H](NC(=O)N[C@@H](CCCCNC(=O)CCOCCOCCOCCOCCNC(=O)/C(=C(\C(=O)O)P(c1ccccc1)c1ccccc1)P(c1ccccc1)c1ccccc1)C(=O)O)C(=O)O [[^188Re]Re-DP1-PSMAt] [metal not drawn] |  |  |  |  |  |  |  |  |  |  |  | negligible uptake | 2.8 ± 1.6 | could be blocked with PMPA | significantly inhibited uptake | significantly inhibited uptake | 27.7 ± 6.4 | 13.5 ± 2.7 | could be blocked with PMPA | negligible uptake | 
5 | Cc1ccc(P(/C(C(=O)O)=C(/C(=O)NCCOCCOCCOCCOCCC(=O)NCCCC[C@H](NC(=O)N[C@@H](CCC(=O)O)C(=O)O)C(=O)O)P(c2ccc(C)cc2)c2ccc(C)cc2)c2ccc(C)cc2)cc1 [[^188Re]Re-DP2-PSMAt, metal not drawn] |  |  |  |  |  |  | 9.8 ± 2.8 | 7.6 ± 4.4 | 128 ± 17.7 | 163 ± 31.8 | 37 ± 12.2 |  |  |  |  |  |  |  |  |  | 
6 | Cc1ccc(P(/C(C(=O)O)=C(/C(=O)NCCOCCOCCOCCOCCC(=O)NCCCC[C@H](NC(=O)N[C@@H](CCC(=O)O)C(=O)O)C(=O)O)P(c2ccc(C)cc2)c2ccc(C)cc2)c2ccc(C)cc2)cc1 [[^188Re]Re-DP2-PSMAt] [metal not drawn] |  |  |  |  |  |  |  |  |  |  |  | negligible uptake | 2.6 ± 1.6 | could be blocked with PMPA | significantly inhibited uptake | significantly inhibited uptake | 19.2 ± 8.6 | 8.3 ±0.7 | could be blocked with PMPA | negligible uptake | 
